Here are results for five molecules from paper PMC8752827 (Nature Communications, 2022).

Where no end group is shown, it is not given here.

What all share (conditions): both partners purified
One assay has as its target human IL-6 (Homo sapiens, UniProt P05231). Description: pull-down; antibody fragment captured by RGS-tag on AC-resin co- or post-translationally, washed, treated with neutral buffer or 2 M GdnHCl/100 mM DTT then 1 M GdnHCl/10 mM GSH (or fully refolded from 6 M GdnHCl); incubated with 50 uL of 10 uM antigen for 3 h at RT; washed; eluted by boiling or by PreScission cleavage; SDS-PAGE.

For the next assay, the target named is Trypsin (UniProt P00760 18-246). Put plainly: enzyme inhibition assay (trypsin-inhibitory assay); 100 pM trypsin pre-incubated with peptide (twofold dilution series from 4 nM to 3.9 pM) for 3 h at room temperature in 0.1 M NaCl, 10 mM CaCl2, 0.005% Triton X-100, 0.1 M Tris-HCl pH 8.0; residual activity on Boc-Q-A-R-AMC (10 uM); Ki from IC50 by a tight-binding equation, Km 12 uM.

For another assay, the target named is T1, Human serum albumin (Homo sapiens, UniProt P02768).
T1 construct: also called HSA
Put plainly: pull-down; antibody fragment captured by RGS-tag on AC-resin co- or post-translationally, washed, treated with neutral buffer or 2 M GdnHCl/100 mM DTT then 1 M GdnHCl/10 mM GSH (or fully refolded from 6 M GdnHCl); incubated with 50 uL of 10 uM antigen for 3 h at RT; washed; eluted by boiling or by PreScission cleavage; SDS-PAGE.

Sequence of human IL-6 (P05231 30-212): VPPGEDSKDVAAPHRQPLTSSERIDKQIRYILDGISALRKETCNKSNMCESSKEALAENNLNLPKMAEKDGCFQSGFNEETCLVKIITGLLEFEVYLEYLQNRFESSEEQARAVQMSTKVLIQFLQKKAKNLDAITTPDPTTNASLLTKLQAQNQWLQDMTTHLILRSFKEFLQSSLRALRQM
Sequence of Trypsin (P00760 24-246): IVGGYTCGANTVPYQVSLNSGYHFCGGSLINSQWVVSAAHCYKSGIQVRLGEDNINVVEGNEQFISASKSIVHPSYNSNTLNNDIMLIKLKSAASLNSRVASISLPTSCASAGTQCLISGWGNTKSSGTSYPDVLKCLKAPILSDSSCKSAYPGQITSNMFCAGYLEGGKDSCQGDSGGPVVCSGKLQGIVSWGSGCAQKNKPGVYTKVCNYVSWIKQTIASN

B1: anti-IL-6 scFv (scFv, V domains shown)
VH: QVQLVESGGGLVQPGGSLRLSCAASGFNFNDYFMNWVRQAPGKGLEWVAQMRNKNYQYGTYYAESLEGRFTISRDDSKNSLYLQMNSLKTEDTAVYYCARESYYGFTSYWGQGTLVTVSG
VL: GIQMTQSPSSLSASVGDRVTITCQASQDIGISLSWYQQKPGKAPKLLIYNANNLADGVPSRFSGSGSGTDFTLTISSLQPEDFATYYCLQHNSAPYTFGQGTKLETG
B1: the binding result with human IL-6 is “binds”.

B2: anti-IL-6 Fab (Fab, V domains shown)
VH: EVQLQESGPGLVKPSQTLSLTCTVSGGSITTRYYAWSWIRQPPGKGLEWMGVIDYDGDTYYSPSLKSRTSISWDTSKNQFSLQLSSVTPEDTAVYYCARDPDVVTGFHYDYWGQGTQVTVSS
VL: QAVLTQPPLVSGTPGQTVTISCAGANNDIGTYAYVSWYQQLPGTAPKLLIYKVTTRASGIPSRFSGSKSGNTASLTISGLQSEDEADYYCASYRNFNNAVFGRGTHLTVL
In the case of B2, in the assay with human IL-6, the binding result was “binds”.

B3: wild-type MCoTI-II fused to RGS (peptide)
peptide: SGSDGGVCPKILKKCRRDSDCPGACICRGNGYCGGAG
modifications: disulfide (positions not given here); also: three disulfides, pairing not given here, fused to RGS
notes: also called wtMCoTI-RGS; wtMCoTI
As to B3, the “fold Ki against prmMCoTI” value with Trypsin is roughly 4 fold.

B4: anti-HSA scFv (scFv, V domains shown)
VH: EVQLLESGGGLVQPGGSLRLSCAVSGIDLSNYAINWVRQAPGKGLEWIGIIWASGTTFYATWAKGRFTISRDNSKNTVYLQMNSLRAEDTAVYYCARTVPGYSTAPYFDLWGQGTLVTVSS
VL: DIQMTQSPSSVSASVGDRVTITCQSSPSVWSNFLSWYQQKPGKAPKLLIYEASKLTSGVPSRFSGSGSGTDFTLTISSLQPEDFATYYCGGGYSSISDTTFGGGTKVEIK
For B4, in the assay with Human serum albumin, the binding result is given as “binds”.

B5: anti-HSA Fab (Fab, V domains shown)
VH: B4 VH
VL: B4 VL
B5: the binding result in the assay with Human serum albumin is on record as “binds”.
